# T1: macaca GM-CSF (rhesus, Macaca mulatta; cynomolgus, Macaca fascicularis, identical sequence) (Macaca mulatta / Macaca fascicularis, UniProt Q0MUT8 18-144 (Chlorocebus aethiops entry), limits assumed)
# T1 chain: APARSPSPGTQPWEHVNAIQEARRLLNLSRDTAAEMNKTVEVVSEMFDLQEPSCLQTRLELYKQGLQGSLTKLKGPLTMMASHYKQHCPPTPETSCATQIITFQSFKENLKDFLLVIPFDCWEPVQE
# Tests used:
# [1] = target: T2, human GM-CSF I117 isoform (human, UniProt P04141 18-144); experiment: cell-based or functional assay
# [2] = target: T3, human GM-CSF T117 isoform (human, UniProt P04141 18-144); experiment: cell-based or functional assay
# [3] = target: T1, macaca GM-CSF (rhesus, Macaca mulatta; …); experiment: cell-based or functional assay
# [4] = target: T2, human GM-CSF I117 isoform; experiment: cell-based or functional assay; remark: listed apart in the source
# Target sequence in this assay (P04141 18-144 limits assumed): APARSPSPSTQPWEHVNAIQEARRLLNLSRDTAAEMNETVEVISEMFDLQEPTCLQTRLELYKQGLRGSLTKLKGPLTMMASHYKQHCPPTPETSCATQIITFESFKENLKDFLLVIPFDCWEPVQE
# [5] = target: T3, human GM-CSF T117 isoform; experiment: cell-based or functional assay; remark: listed apart in the source
# Target sequence in this assay (P04141 18-144 I117T limits assumed): as the sequence (P04141 18-144 limits assumed) above, with I100T counted along it
# [6] = target: T1, macaca GM-CSF (rhesus, Macaca mulatta; …); experiment: cell-based or functional assay
# [7] = target: T2, human GM-CSF I117 isoform; experiment: cell-based or functional assay; remark: listed apart in the source
# [8] = target: T3, human GM-CSF T117 isoform; experiment: cell-based or functional assay; remark: listed apart in the source
# [9] = target: T2, human GM-CSF I117 isoform; experiment: TF-1 proliferation assay and KinExA
# Method: To determine potency and affinity of the antibody, Kd measurements and a proliferation bioassay of TF-1 cells were performed. TF-1 is an erythroleukemic cell line from blood, which proliferates in response to e.g. GM-CSF. Kd determination was carried out with the Kinetic Exclusion Assay (KinExA®; Sapidyne Instruments, Inc., Boise, Id., USA).
# [10] = target: T2, human GM-CSF I117 isoform; experiment: KinExA, affinity in solution, average n = 2
# Method: (§1) The 4K21 and reference antibodies were incubated at concentration below the expected Kd with serial dilutions of human GM-CSF I117 or T117, or macaca GM-CSF up to equilibrium. The remaining free antibody was measured in a Kinetic exclusion assay with the KinExA® instrument. Kd was calculated by fitting the curve of the signal obtained versus the GM-CSF concentrations. The average of two experiments using different IgG concentrations was calculated.
# [11] = target: T3, human GM-CSF T117 isoform; experiment: KinExA, affinity in solution, average n = 2
# Method: as §1
# [12] = target: T1, macaca GM-CSF (rhesus, Macaca mulatta; …); experiment: KinExA, affinity in solution, average n = 2
# Method: as §1
# [13] = target: T3, human GM-CSF T117 isoform; experiment: cell-based or functional assay; remark: listed apart in the source
# [14] = target: T1, macaca GM-CSF (rhesus, Macaca mulatta; …); experiment: cell-based or functional assay
# human GM-CSF A117 mutant = target: T4, human GM-CSF A117 mutant (human, UniProt P04141 18-144); experiment: competition ELISA: antibody binding to coated human GM-CSF, soluble human GM-CSF A117 as competitor (one condition, concentration not given)
# T4 construct: also called hGM-CSF A117
# Excerpt: Detection of humanized parental anti-GM-CSF 4K21 binding to coated wild-type GM-CSF is competed away by soluble […]. Binding of all optimized 4K21 antibodies to the GM-CSF coated wells is not affected anymore by the presence of A117 protein in solution.
# [15] = target: T1, macaca GM-CSF (rhesus, Macaca mulatta; …); experiment: KinExA, affinity in solution; largest Kd ratio across the three GM-CSF targets, by Table 3 macaca (11 pM) against hGM-CSF I117 (4 pM)
# Method: as §1
# [16] = target: T3, human GM-CSF T117 isoform; experiment: KinExA, affinity in solution; largest Kd ratio across the three GM-CSF targets, by Table 3 hGM-CSF T117 (174 pM) against hGM-CSF I117 (17 pM)
# Method: as §1
Binder,"IC50 (pM), inhibition of GM-CSF induced IL-8 secretion in U937 cells (65 pM GM-CSF, n = 2) [1]","IC50 (pM), inhibition of GM-CSF induced IL-8 secretion in U937 cells (65 pM GM-CSF, n = 2) [2]","IC50 (pM), inhibition of GM-CSF induced IL-8 secretion in U937 cells (65 pM GM-CSF, n = 2) [3]",Fold improvement of humanized parental 4K21 on I117 (TF-1 proliferation IC50) [4],"IC50 (pM), inhibition of GM-CSF induced TF-1 proliferation (32 pM GM-CSF, average n = 3) [4]",Fold human T117/I117 (TF-1 proliferation IC50) [5],Fold improvement of humanized parental 4K21 on T117 (TF-1 proliferation IC50) [5],"IC50 (pM), inhibition of GM-CSF induced TF-1 proliferation (32 pM GM-CSF, average n = 3) [5]",Fold improvement of humanized parental 4K21 on macaca (TF-1 proliferation IC50) [6],Fold macaca/human I117 (TF-1 proliferation IC50) [6],"IC50 (pM), inhibition of GM-CSF induced TF-1 proliferation (32 pM GM-CSF, average n = 3) [6]","Emax (%), inhibition of CD11b upregulation on neutrophils [7]","IC50 (nM), inhibition of CD11b upregulation on neutrophils [7]","Emax (%), inhibition of CD11b upregulation on neutrophils [8]","IC50 (nM), inhibition of CD11b upregulation on neutrophils [8]",fold preference for GM-CSF I117 versus T117 [9],Kd [10],Kd [11],Kd [12],binding result (human GM-CSF A117 mutant),other results
"humanized parental anti-GM-CSF 4K21 VH3-07.1AL+VK2-A3.2 hIgG1 K antibody (MSB0010439) (antibody, V domains shown, hIgG1 kappa; also called humanized parental 4K21 hVH hVL; humanized parental 4K21) VH: EVQLVESGGGLVQPGGSLRLSCAASGFAFSAYDMSWVRQAPGKRLELVAYISSGGSSFYYPDTVKGRFTISRDNAKNSLYLQMNSLRAEDTAVYYCTRHLGFDYWGQGTLVTVSS VL: DIVMTQSPLSLPVTPGEPASISCRSSQSLVNSNGNTYLHWYLQKPGQSPQLLIYKVSNRFSGVPDRFSGSGSGTDFTLKISRVEAEDVGVYYCSQSTHVPPTFGQGTKVEIK",170 pM,930 pM,1120 pM,1 fold,121 pM,11.6 fold,1 fold,1400 pM,1 fold,6.6 fold,793 pM,65%,3.06 nM,68%,31.6 nM,> 10 fold,0.021 nM,0.164 nM,0.063 nM,,"fold worse IC50 on T117 than on I117, CD11b upregulation in neutrophils [13]: 10 fold; fold less efficient neutralization than on human GM-CSF (TF-1 proliferation assay) [14]: < 10 fold"
"4K21 hVH S55K-T62S hVL N28I-H34S-N53R-H93F (MSB0010628) (antibody, V domains shown, Tested as IgG ('optimized 4K21 IgGs'); the humanized parent is hIgG1 kappa; also called optimized 4K21 antibody; 4K21 (4K21 VH S55K-T62S VL N28I-H34S-N53R-H93F)) VH: EVQLVESGGGLVQPGGSLRLSCAASGFAFSAYDMSWVRQAPGKRLELVAYISSGGKSFYYPDSVKGRFTISRDNAKNSLYLQMNSLRAEDTAVYYCTRHLGFDYWGQGTLVTVSS VL: DIVMTQSPLSLPVTPGEPASISCRSSQSLVNSIGNTYLSWYLQKPGQSPQLLIYKVSRRFSGVPDRFSGSGSGTDFTLKISRVEAEDVGVYYCSQSTFVPPTFGQGTKVEIK",257 pM,181 pM,501 pM,6.6 fold,18 pM,1.2 fold,63 fold,22 pM,11 fold,3.9 fold,72 pM,84%,1.65 nM,97%,1.98 nM,,0.004 nM,0.007 nM,0.011 nM,binds,fold affinity difference between the 2 hGM-CSF isoforms and the macaca ortholog [15]: < 3 fold
"4K21 hVH S55K-T62S hVL S27eY-N28I-H34S-N53R-H93F (MSB0010629) (antibody, V domains shown, Tested as IgG ('optimized 4K21 IgGs'); the humanized parent is hIgG1 kappa; also called optimized 4K21 antibody with S27eY; 4K21 (4K21 VH S55K-T62S VL S27eY-N28I-H34S-N53R-H93F)) VH: EVQLVESGGGLVQPGGSLRLSCAASGFAFSAYDMSWVRQAPGKRLELVAYISSGGKSFYYPDSVKGRFTISRDNAKNSLYLQMNSLRAEDTAVYYCTRHLGFDYWGQGTLVTVSS VL: DIVMTQSPLSLPVTPGEPASISCRSSQSLVNYIGNTYLSWYLQKPGQSPQLLIYKVSRRFSGVPDRFSGSGSGTDFTLKISRVEAEDVGVYYCSQSTFVPPTFGQGTKVEIK",311 pM,354 pM,286 pM,4.4 fold,28 pM,1.6 fold,32 fold,44 pM,19 fold,1.5 fold,42 pM,,,,,,,,,binds,
"anti-GM-CSF 4K21 hIgG1 K antibody (MSB0010259), recombinant chimeric 4K21 (antibody, V domains shown, Murine variable domains fused to human constant IgG1 heavy chain and kappa light chain domains; also called parental chimeric 4K21) VH: EVQLVESGGGLVKSGGSLKLSCAASGFAFSAYDMSWVRQTPEKRLELVAYISSGGSSFYYPDTVKGRFTISRDNAKNTLYLQMSSLKSEDTAMYYCTRHLGFDYWGQGTTLTVSS VL: DVVMTQTPLSLPVSLGDQASISCRSSQSLVNSNGNTYLHWFLQKPGQSPKLLIYKVSNRFSGVPDRFSGSGSGTDFTLKISRVEAEDLGVYFCSQSTHVPPTFGGGTKLEIK",,,,0.9 fold,130 pM,10.8 fold,1 fold,1410 pM,0.7 fold,9.3 fold,1220 pM,,,,,> 10 fold,0.017 nM,0.174 nM,0.104 nM,,fold affinity difference between the 2 hGM-CSF isoforms and the macaca ortholog [16]: ≤ 10 fold
"murine hybridoma-derived 4K21 antibody (antibody, V domains shown, also called murine 4K21; murine monoclonal antibody 4K21) VH: EVQLVESGGGLVKSGGSLKLSCAASGFAFSAYDMSWVRQTPEKRLELVAYISSGGSSFYYPDTVKGRFTISRDNAKNTLYLQMSSLKSEDTAMYYCTRHLGFDYWGQGTTLTVSS VL: DVVMTQTPLSLPVSLGDQASISCRSSQSLVNSNGNTYLHWFLQKPGQSPKLLIYKVSNRFSGVPDRFSGSGSGTDFTLKISRVEAEDLGVYFCSQSTHVPPTFGGGTKLEIK",,,,,,,,,,,,,,,,> 10 fold,,,,,

# — US20140023641A1 (MERCK SERONO S A, published 2014)
